Test: yeast display, Sf9 membrane polyspecificity reagent, FACS + sequencing; frameworks hold sequencing errors
Summary of the method: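 Using colony PCR, genes from sorted yeast display clones were amplified, then sequenced on MiSeq at 2 × 250 and filtered by CDR length. The clones had been stained with 10% biotinylated, detergent-solubilized Sf9 membrane reagent for 1 hour at 4 °C and sorted by FACS into low and high (top ~1%) gates on anti-HA and streptavidin fluorescence. Polyreactivity labels come from the gate of origin.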

Sequence	polyreactivity (PSR sort gate)
QVQLVESGGGLVQAGGSLRLSCAASGIIIRKYAMGWYRQAPGKERELVAAITTRGSRTYYADSVKGRFTISRDNAKNTVYLQMNSLKPEDTAVYYCAADFGYAWWWYDTYGYWGQGTQVTVSS	high polyreactivity
QVQLVETGGGLVQAGGSLRLSCAATGLNFWLYAMAWYRQAPGKEREFVAVISWSGGTTYYADSVKGLFTISRDYAKNTVYLTMTTLIPEDTAVYFCAAQVCYYTNYREFDYWGQGTQVTVSS	low polyreactivity
QVQLVESGGGLVQAGGSLRLSCAASGSTFYIYAMGWYRQAPGKERELVAAINSGGGTNYADSVKGRFTISRDNAKNTVYLQMNSLKPEDTAVYYCAKTFYSLYWGQGTQVTVSS	low polyreactivity
QVQLVESGGGLVQAGRSLRISCAASGRIFYYNDMGRYRQAPGKERELVAAITWTDDGTYYADSVKARFTISRDNAKNTVYLQMNSLKPEVTAVYYCAAESFYGFEYWGQGTQLTVSS	low polyreactivity
QVQLVESGGGLVQAGGSLRLSCAASGSTLSKYGMGRYRQAPGKERELVAAISYSSGSTYYADSVKGRFTISRDNAKNSVYLQMNSLKPEDTAVYYGAADRFRRLHYWTYDYWGQGTQVTVSS	high polyreactivity
QVQLVESGGGLVHAGGSLRLSCAASGFILSANDMGWYRQAPGQERELVADIDSSGRTNYADSVKGRFTISRDNAKNTVYLQMISLKPEDTAVYYCATPPDDKGGGYLGFDYWGQGTQVTVSS	low polyreactivity
QVQLVESGGGLVQAGGSLRLSCAASGSTFGVNAMGWYRPAPGKERELVAAISSSGSSTYADSVKGRFTISRDNAKNTVYLQMNSLKPEDTAVYYCNKTTLLTVEYDYWGQGTQVTVSS	low polyreactivity
QVQLVESGGGLVQAGGSLRLSCAASGSTLSRYAMGWYRQAPGKERELVAAISRRGGSTFYADSVKGRFTISRDNAKNTVYLQRNSLKPEDTAVYYCAALSNHGYYIRMDYWGQGTQVTVSS	high polyreactivity
QVQLVESGGGLVQAGGSLRLSCAASGRTFVIYAMGWYRQAPGKQRELVAAISKSGGRTYYADSVKGRFTISRDNAKNSVYLQMNSLKPEDTAVYYCNKVLSVSQAGGFDYWGQGTQVTVSS	high polyreactivity
QVQLVESGGGLVQAGGSLRLSCAASGRIFGRYAMGWYRPAPGKERELVAAITYRTGRTYYADSVKGRFTISRDNAKNTVYLQMNSLKPEDTAVYYCDAESTSDPIDFEYWGQGTQVTVSS	low polyreactivity
QVQLVESGGGLVQAGGSLRLSCAASGFIFVGNAMGWYRQAHGKERELVAAISRRGSRTFYADSVKARFTISRDNAKNTVYLQMNSLKPEETAVYYCAAEGYYVTPFDYWGQGTQVTVSS	high polyreactivity
QVQLVESGGGLVQAGGSLRLSCAASGSTFKRYAMGWYRQAPGKDRELVASISSGGSPNYADSVKGRFTISRDNAKNTVYLQMNSLKPEDTAVYYCAVSYRSFRYFWERYSSWGQGTQVTVSS	high polyreactivity
QVQLVESGGGLVQAGGSLRLSCAASGRTIDHYAMGWYRQAPGKERELVAAISTTGGSTYYADSVKGRFTISRDNAKNTVYLQMNSLKPEYTAVYYCAARGLRTGGYWGQGTQVTVSS	high polyreactivity
QVQLVESGGGLVQAGGSLRLSCAASGFTFNGKSMGLYRQAPGKERELVAAISYSGGSTYYADSVKGRFTISRDYAKNTVYLQMNSLKPEDTSVYYCAADRTAYSVRGYTKVHSGHDYWGQGTQVSVSS	low polyreactivity
QVQLVESGGGLVQAGGSLRLSCAASGSIFKYNAMGWYRKAPGKERELVAAISWSGASTSYADSVKGRFTISRDNAKNTVYLQMNSLKPEDTAVYYCNAYYWYYSTRKYYYWGQGTKVTVSS	high polyreactivity
QVQLVESGGGLVQAGGSLRLSCAASGGTFYYNAMGWYRQAPGKERELVAAITDSGGRTYYADSVKGRFTISRDNAKNTVYLQMNSLKPEDTAVYYCAALARRQSRLYDYWGQGTQVTVSS	high polyreactivity
KVQLVESGGGLVQAGGSLRISCAASGITFVRNAMGWYRQAPGKERELVAAISSGGSTYYADSVKGSFTISRDNAKITVYLLMYSLKPEDNAVYFCAVLSSWRFSGYDYWGQGTQVNVSS	low polyreactivity
QVQLVESWGGLVQAGGSLRLSCAASGMGRYRQAPGKERELVAAINWSGGNTYYADSVKGRFTISRDNAKNTVYLQMNSLIPEDTAVDYCNAVVWVEVPGDYWGQGTQVTVSS	low polyreactivity
QVQLVESGGGLVQAGGSLRLSCAASGLIFKNNAMGWYRQAPGKERELVAAIDSIGGSTYYADSVKGRFTISRDNAKNTVYLQMNSLKPEDTAVYYCATDYYFYPHSQYDYWGQGTQVTVSS	low polyreactivity
QLQLVESGGGLVQAGGSLRLSCAASGISFSSYTMGWYRQAHGKERELVAAITWRGGRTYYADSVKGRFKISRDNAKNTVFLQMHSLKTEDTSVFYCAARDVAGYSTRFYYWGQGTQVTVSS	high polyreactivity
QVQLVESGGGLVQAVGSLRLSCAASGSTFDHYAMGWYRQAPGKERELVAAISYSGSTTDYADSVKGRFTISRDNAMNTVYLQMISLKPEDTAVYYCAASGDVIQSPMDYWGQGTQVTVSS	low polyreactivity
QVQLVESGGGLVQAGGSLRLSCAASGSIFVDNAMGWYRQAPGIERELVAVITLRSGSTNYADSVKGRFTISRDNAKNTVYLQMNSLKPEDTAVYYCAADDTYHDYQRDTDDDYWGQGTQVTVSS	low polyreactivity

Sequence	polyreactivity (PSR sort gate)
QVQLVESGGGLVQAGGSLRLSCAASGSIFGRNAMGWYRQAPGKERELGAAMTGSGTSTYADSVKGRFTISRDNAKNTVYLQMNSLKPEDTAVYYCAAGVTTVEYEYCGQGTQVTVSS	low polyreactivity
QVQLVESGGGLVQAGGSLRLSCAASGRTFGQNAMGWYRQAPGKERELVAVISSRGGSTYYADSVKGRFTISRDNAKNTVYLQMNSLKPEDTAVYYCNTDAQSRQTIRTGYDSWGQGTQVTVSS	high polyreactivity
QDQLVESGGGLVQAGGSLRLSCAASGSNFVINAMGWYRQAPGKERELVAAISYSGTGTYYADSVKGRFTISRDNAKNTVYLQMNSLKPEDTAVYYCAGDYYYRYRIYDYWGQGTQVTVSS	low polyreactivity
QVQLVESGGGFVQAGGSLRLSCAASGRTFRYYAMGWYIQAPGKERELVASISSSGARTYYADSVKGRFTISRDNAKNTVYLQMNSLNPDDTAVYYCNARYSTTYYGTIYRGMDYWGQGTQVTVSS	high polyreactivity
QVQLVESGGGLVQAGGSLRLSCAASGFTFTYYAMGWYRQAPGKERELVAVISSAGSTYNADSVKGRFTISRDNAKNTVYLQMNSLKPEDTAVYYCNAVGRYYSSGRYGHWGQGTQVTVSS	high polyreactivity
QVQLVESGGGLVQAGGSLRLSCAASGRIFRLYAMGWYRQAPGKERELVAAITSSGSSTYYADSVKGRFTISRDNAKNTVSLQMNSLKPEDTAVYYCNARYTYPYHFGYWGQGTQVTVSS	high polyreactivity
QVQLVESGGGLVQAGGSLRLSCAASGGTFGSYAMGWSRPAPGKERELVAAIDYSGADTYYADSVKGRFTISRDNAKNTVYLQMNSLKPEDTAVYYCNAEFESGHDLDWYDYWGQGTQVTVSS	low polyreactivity
QVQLVESGGCLVQAGGSLRLSCASSGRTFRRYTMGWYRQAPGKETELVAAITSGGRTNYADSVKGRFTISRDNAKNTVYLQMNSLKPEDTAVYYCNAQNEIWRVTFSPYDRWGYDYWGQGTQVTVSS	low polyreactivity
QVQLVESGGGVIQAGGSLRLSCAASGRTFYRNTMGWYRQAPGKERELVASISRGGRTNYADSVKGRFTISRDNAKNTVYLQMNSLKREDTAVYYCAKQTSYGGIIRYYASCYGYWGQGTQVTVSS	high polyreactivity
IIQAGGSLRLSCAASGRTFSGYAMGWYRQAPGKERELIDDITSGGSTYYADSVKGRFTISRDNAKNTVYIQMNSLKPEDTAVYYCAAERHIRSFSSSRTYEFGYWGQGTQVTVSS	low polyreactivity
QVQLVESGGGLVQAGGSLRLSCAASGTFYLYAMGWYRQAPGKERELVAAISGSGSTNYADSVKGRFTISRDNAKNTVYLQMNSLKPEDTAVYYCAAYQRYDSVTGARYEYDYWGQGTQVTVSS	low polyreactivity
QVQLVESGGGLVQAGGSLRLSCAASGFTFYRYAMGWYRQAPGKERELVAAISGSGCSKYYADSVKGRFTISRDNAKNTVYLHRNSLKPEDTAVYYCNTVWFYGAKYDYWGQGTQVTVSS	high polyreactivity
QVQLVESGGGLVQAGGSLRLSCAASGSTFAGNTMGWYRQAPGKERELVAAITWNGGRTRYADSVKGRFTISRDNAKNTVYLQMNSLKPEDTAVYYCNAGPWYENMDYWGQGTQVTVSS	high polyreactivity
QVQLVESGGGLVQAGGSLRLSCAASGIIFKGYPMGWYRPAPGKERELVAGISSGGTTYYADSVKGRFTISRDNAKITVYLQMNSLKPEDTAVYYCGAGPRRSYRFDYWGQGTQVTVSS	high polyreactivity
QVQLVESGGGLVQAGGSLRLSCAASGSIFRYYDMGWYRQAPGKERELVAAITYSGGGTYYADSLKGRFTISRDNAKNTVYLQMNSLKPEDTAVYYCAAEPYYGWQRLDYWGQGTQVTVSS	low polyreactivity
QVQLVESGGGLVQAGGSLRLSCAASGRTFVWNVMGWYRQAPGKEREFVAAISGGSTYYADSVKGRFTISRDNAKNTVYLQMTSLKPEDTAVYYCAADSKLHPRYEYWGQGTQVTVSS	low polyreactivity
QVQLVESGGGLVQAGGSLRLSCAASGFTFAYNAMGWYRQAPGKERELVAAISSGGTRTYYADSVKGRFTISRDNAKYTVYLQLNSLNPEDTAVYYCASERVGWSGYRGDYLGQGTQVTVSS	high polyreactivity
QVQLVESGGGLVQAGGSLRLSCAASGRIFPGNAMGWYRQAPGKERELVATITESDSSTYYADSVKGRFTISRDNAKNTVYLQMNSLKPDDTAVYYFAAGPSVYWRYDYWGQGTQVTVSS	low polyreactivity
QVQLVESGGGLVQAGGSLRLSCAASGLIFRRYVMGWYRQAPGKERELVAAITSRGTRTYYADSVKGRFTISRDNAKNTVYLQMNSLKPEDTAVYYCNAQIYTYRTGRGYSRMDYWGQGTQVTVSS	high polyreactivity
QVQLVESRGGLVQAGGSLRLSCAASGRINSRYAMGLSRQEPGKERELVAAISWNGGSTYYADSVKGRFTISRDNAMNTVYFQMNSLKPEDTAVYYCAAYRPGPYAAYGYWGQGTQVTVSS	high polyreactivity
QVQLVESGGGLVQAGGSLRLSCAASGSIFPYYAMGWYRQAPGKERELVAAITWSGGNTYYADSVKGRFTISRDNAKNTVYLQMNSLKPEDTAVYYFNALYRKYTGYDGYDYWGQGTQVTVSS	high polyreactivity
